Results reported in the supplement of paper PMC10724198.
± gives the standard deviation of the averaged measurements.

The sequences below were run on Saccharomyces cerevisiae (assay: protein stability index of tFT-peptide fusion (C-terminal peptide) (PSI (0-1 scale)); higher = more stable (slower turnover)). Settings: genetic background: wild type; temperature: 30 C.
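Note: PSI is a weighted mean of sequencing reads over stability bins, variants kept only with over 10 reads, mCherry proximal and sfGFP distal, peptide attached via GGGS linker.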

Row | Sequence | protein stability index
1 | RLLHLMCFCSGP | 0.644 ± 0.031
2 | RLLPCATPHPDL | 0.647 ± 0.015
3 | RLLPVTISSSLS | 0.702 ± 0.031
4 | RLLYGIYDHGRQ | 0.731 ± 0.091
5 | RLMKQKKMKRRK | 0.724 ± 0.025
6 | RLPCPLRSRALS | 0.626 ± 0.03
7 | RLPHPPARVFSI | 0.691 ± 0.011
8 | RLPPLFPPPPPC | 0.709 ± 0.038
9 | RLPPPPPPSPHL | 0.711 ± 0.054
10 | RLPVRSGAMHGC | 0.665 ± 0.011
11 | RLSGHLRLGRLG | 0.672 ± 0.086
12 | RLSSCSAPFPLL | 0.7194 ± 0.0068
13 | RLTDPHWALIQS | 0.839 ± 0.2
14 | RLTKKKKEIKRR | 0.717 ± 0.014
15 | RLTLTAKDNEGC | 0.733 ± 0.1
16 | RLVDCDLTDKWH | 0.696 ± 0.018
17 | RLVSIHDTRESL | 0.727 ± 0.012
18 | RLVSPVLPLSRL | 0.728 ± 0.031
19 | RLYPVPARPSPS | 0.629 ± 0.046
20 | RMEPPLCIISPK | 0.6605 ± 0.0065
21 | RNKKKKEKKKVE | 0.693 ± 0.038
22 | RNLCHILRHERT | 0.708 ± 0.088
23 | RNQTRKTTQKPR | 0.661 ± 0.01
24 | RNRVVPITARLT | 0.545 ± 0.014
25 | RNTIKMKENKRI | 0.643 ± 0.042

Row | Sequence | protein stability index
26 | RNTKGIIKKKKE | 0.702 ± 0.042
27 | RNYEGTKIEEQE | 0.7219 ± 0.0047
28 | RNYEKRSIIVCK | 0.497 ± 0.031
29 | RNYIVLYYDEGD | 0.673 ± 0.074
30 | RPAESPPAFYNR | 0.774 ± 0.062
31 | RPAGGPSGGEGV | 0.689 ± 0.074
32 | RPDTGPPRRNRE | 0.715 ± 0.031
33 | RPFVSSAGSQFP | 0.808 ± 0.046
34 | RPFYPLVRPRTR | 0.798 ± 0.2
35 | RPGAFDNGLTLP | 0.682 ± 0.055
36 | RPGGRLLVWVGG | 0.55 ± 0.038
37 | RPGPGHYRSIIL | 0.669 ± 0.11
38 | RPHPQRANAPGH | 0.69373 ± 9.2e-06
39 | RPHTSPPPRHLY | 0.61 ± 0.016
40 | RPPAPVFPNFPG | 0.708 ± 0.022
41 | RPPAVVHLQPFY | 0.7016 ± 0.0064
42 | RPPFPPLPLPPP | 0.674 ± 0.088
43 | RPPGLIDSTIQP | 0.602 ± 0.034
44 | RPPLLSPSPPPP | 0.649 ± 0.014
45 | RPPLSSPPPPPP | 0.701 ± 0.017
46 | RPPPLLPARLSL | 0.727 ± 0.028
47 | RPPRPAATGVQH | 0.683 ± 0.018
48 | RPPSLCSYSICV | 0.585 ± 0.0092
49 | RPRKPGLACKHL | 0.652 ± 0.034
50 | RPSPPLLLPPAP | 0.71822 ± 0.00068

Row | Sequence | protein stability index
51 | RPSTVPGHGSDT | 0.677 ± 0.011
52 | RPSYRFFVRCSP | 0.762 ± 0.053
53 | RPTSTHQPASPS | 0.684 ± 0.025
54 | RPVVASRQASHS | 0.703 ± 0.021
55 | RQEFSGAPPHLI | 0.697 ± 0.029
56 | RQFRVVGCVCQP | 0.686 ± 0.037
57 | RQHYFDVLGEMY | 0.7113 ± 0.0027
58 | RQLLAVAELLTF | 0.677 ± 0.086
59 | RQRLGLRIIIPS | 0.624 ± 0.017
60 | RQRWLSELSKAL | 0.712 ± 0.083
61 | RQSGSDFYGRSY | 0.663 ± 0.032
62 | RQYARKKKKVRN | 0.683 ± 0.025
63 | RRADGASLNNSV | 0.697 ± 0.028
64 | RRAHATLPMNEF | 0.616 ± 0.015
65 | RRAPTTATPARP | 0.826 ± 0.14
66 | RRASTVRVPTCW | 0.701 ± 0.019
67 | RRCDKTMSEGFF | 0.692 ± 0.078
68 | RRCGTERVKARE | 0.766 ± 0.023
69 | RRGYSNCMTLWI | 0.702 ± 0.049
70 | RRHLSLCLLPSL | 0.685 ± 0.011
71 | RRKTKTYRSWME | 0.649 ± 0.035
72 | RRLANMIFFLGG | 0.69 ± 0.042
73 | RRLDGDLSPPIR | 0.664 ± 0.095
74 | RRLGCDFDTYKK | 0.718 ± 0.043
75 | RRLPPSRSAPFP | 0.698 ± 0.028

Row | Sequence | protein stability index
76 | RRLQGKWIWQNH | 0.731 ± 0.055
77 | RRMIKNVRRHKV | 0.661 ± 0.075
78 | RRPPALDSLRHY | 0.661 ± 0.011
79 | RRRENAKENEIK | 0.812 ± 0.13
80 | RRRGEGRREKDR | 0.677 ± 0.12
81 | RRRREKEKRSQE | 0.734 ± 0.14
82 | RRRSAFRLIKEK | 0.677 ± 0.045
83 | RRTEGKECEGEE | 0.707 ± 0.064
84 | RRTRRATKAKKR | 0.682 ± 0.058
85 | RRTTTDSPRADR | 0.708 ± 0.047
86 | RRVMGRLKNQIK | 0.6672 ± 0.0065
87 | RRWIFGEGMSTY | 0.723 ± 0.058
88 | RRWWDHGCSGAG | 0.672 ± 0.061
89 | RRYLREEDVQEK | 0.696 ± 0.049
90 | RSAPPPPPLRLD | 0.789 ± 0.062
91 | RSARGRRGWALG | 0.712 ± 0.022
92 | RSCGCNGPGRSP | 0.749 ± 0.08
93 | RSCPILLLSFPL | 0.62297 ± 0.00052
94 | RSFPLRLLSLFV | 0.585 ± 0.019
95 | RSGGYPGLLLFN | 0.6227 ± 0.0053
96 | RSGRGRRGVGWV | 0.655 ± 0.038
97 | RSGSRNYPGFPR | 0.764 ± 0.027
98 | RSIFLSRFVIGC | 0.682 ± 0.018
99 | RSINTETPSKNE | 0.613 ± 0.056
100 | RSIYEFVPIRYV | 0.594 ± 0.028

Row | Sequence | protein stability index
101 | RSPGSVSVGGVV | 0.615 ± 0.021
102 | RSPHGLRSRIQR | 0.72 ± 0.037
103 | RSPLPFPGASVP | 0.747 ± 0.039
104 | RSPRLRSRVRVP | 0.639 ± 0.083
105 | RSPSTRHVGLSW | 0.6696 ± 0.00085
106 | RSRHRRQDGKKT | 0.64 ± 0.029
107 | RSRPPPPLLPSV | 0.8206 ± 0.0072
108 | RSSECNQLYTHK | 0.682 ± 0.065
109 | RSTPALRPVDLE | 0.707 ± 0.049
110 | RSTSPCPPTVSP | 0.641 ± 0.091
111 | RSTTDNADRILY | 0.7299 ± 0.0022
112 | RSVVLPSFLSPH | 0.699 ± 0.017
113 | RTDRIVGGNERV | 0.661 ± 0.0072
114 | RTFVSLLTSSSH | 0.83 ± 0.17
115 | RTGLLLLVQDFR | 0.703 ± 0.018
116 | RTGSCSCQRKPE | 0.663 ± 0.017
117 | RTHLVRRHGEAR | 0.697 ± 0.02
118 | RTKETTTRQKKK | 0.708 ± 0.052
119 | RTKNMRRIKEKG | 0.688 ± 0.046
120 | RTKVSENLNEKK | 0.681 ± 0.032
121 | RTLYAGVVGGNG | 0.734 ± 0.086
122 | RTPLPPPRPSTY | 0.719 ± 0.049
123 | RTPSHPLPHPHS | 0.677 ± 0.12
124 | RTSGRIASLPGP | 0.617 ± 0.031
125 | RTSPRMAPLRTH | 0.713 ± 0.067

Row | Sequence | protein stability index
126 | RTTAPPIPLPSP | 0.729 ± 0.042
127 | RTTKRKIKIIGI | 0.709 ± 0.013
128 | RVCSGYSRLRFA | 0.561 ± 0.085
129 | RVDTRKQNKNSM | 0.693 ± 0.019
130 | RVEITGVAVTRC | 0.642 ± 0.0082
131 | RVFVRFGSCAGG | 0.679 ± 0.059
132 | RVGGRVSGGGGL | 0.654 ± 0.027
133 | RVPNSYELRCFR | 0.544 ± 0.038
134 | RVPPPTSPPSPP | 0.694 ± 0.012
135 | RVSEPRRPPLGR | 0.65 ± 0.024
136 | RVSGILQHFTSA | 0.7309 ± 0.0058
137 | RVSWGRTGTLRN | 0.681 ± 0.018
138 | RVTMLPSSQRGI | 0.651 ± 0.033
139 | RVTPGLSIFFWP | 0.729 ± 0.0094
140 | RVVCFPAPLMPR | 0.705 ± 0.05
141 | RVVDEPRDFQVR | 0.6888 ± 0.0043
142 | RVVPSVSVWLPP | 0.663 ± 0.052
143 | RWKLRLFLLVPT | 0.602 ± 0.044
144 | RWLGWRAGGAAG | 0.662 ± 0.071
145 | RWPSVGFTAHNV | 0.571
146 | RWSPLLPPQVSL | 0.683 ± 0.019
